# Test: soluble on expression in E. coli; label from the status in PepcDB or PDB records
row,Sequence,soluble on expression in E. coli
1,MIGSTSDGLVPGNTDMPATPTTALTALRTPHPPTGGESMHPRTRTAPALLFAVCLTALAAYPAAADDPVPTTERVSVTLDGAQIDDPSYRPQLTSKGGVVYTSDGPVWSTDHNGVSDAYRNSERVSYNMGAARSYDPSACHTARMIAFVSDRTPAGGTTPSVYVRNTPVGKLSYASHGYQGVPFTWAGQPAMSADCQWMAFSATLPATPDHVEQPRVYRYRIYDGTIEQVSPDSADGSRAAVRPSISADGRYVAYQSSIPHPGGPANDSDIYVRDLETGTLEKASVGRHGRPADRASTGPSLSADGRHVAFDSYASNLAPGDTNGTVNVFVRDLDAGTTRLVKGAGRHAYTAEAALSGDGLHLAYVSAGIRGSRGVPAVYLRDLATGRTRLISVDTRGHRNDRAAGNPSVNPDGTAVAFDSASPDLVPGDTNGTVDVFLRRLGSPEALEHHHHHH,soluble
2,MIGYQIYVRSFRDGNLDGVGDFRGLKNAVSYLKELGIDFVWLMPVFSSISFHGYDVVDFYSFKAEYGSEREFKEMIEAFHDSGIKVVLDLPIHHTGFLHTWFQKALKGDPHYRDYYVWANKETDLDERREWDGEKIWHPLEDGRFYRGLFGPFSPDLNYDNPQVFDEMKRLVLHLLDMGVDGFRFDAAKHMRDTIEQNVRFWKYFLSDLKGIFLAEIWAEARMVDEHGRIFGYMLNFDTSHCIKEAVWKENTRVLIESIERAVIAKDYLPVNFTSNHDMSRLASFEGGFSKEKIKLSISILFTLPGVPLVFYGDELGMKGVYQKPNTEVVLDPFPWNESMCVEGQTFWKWPAYNGPFSGISVEYQKRDPDSILSHTLGWTRFRKENQWIDRAKLEFLCKEDKFLVYRLYDDQHSLKVFHNLSGEEVVFEGVKMKPYKTEVV,soluble
3,MIIERLVGNLRDLNPLDFSVDHVDLEWFETRKKIARFKTRQGKDIAIRLKDAPKLGLSQGDILFKEEKEIIAVNILDSEVIHIQAKSVAEVAKICYEIGNRHAALYYGESQFEFKTPFEKPTLALLEKLGVQNRVLSSKLDSKERLTVSMPHSEPNFKVSLASDFKVVVK,not soluble
4,MIIKKIIDLTMPITAQTPVYPGDPKPKIEPAATFAQDGYHVSRLVLGSHSGTHVDAPFHFCEHGWRLDDVPLTYFLGRGVVIDATGKAEGEAVTMADAAPYIPKLSPGTIVLFHTGWSQYAGTKRYFRHPYVAPDVIEAMLERGVRTFLIDALNIDPPDGSLFHAHELILGANGVIGENFVNFERIDFDDPYIIALPLSLPGCERFARSGGGGAVGVTKKGDTAPHML,not soluble
5,MIINKVKSLIKHGFNLAIDISADILLIFTETGRTYEYYKDQEAIYKRARKNRSLKDFKSLKVVVTTPNEETFLKLKNESKIIPLLMTYRNDDRSSMIKQAVTNLFANNIVKKGDIVVSILGIPKVTGGTDTISIFEVNEYPQILKYYDYISSIEKTKGKVINEVLNLCMELAVEGREGTPVGSIFVIGDSDRVLKMSSQLILNPFEGHESFIFDKQVKGTVKELSTIDGAFVIGEKGEVLCAGRYISCSGGNIELPLGLGARHHAAATISKYTGAIAITVSESGGVIRIFKNGEILSEIKPKKLSNTSEYSY,not soluble
6,MIISDKFSLEAMCATTITDVKAGDEIILYGQKLTDENSCVTIKTDRVDIISSGNFIKYPNSTDIYDFDNKIDEWSFIIVEGVVNGNTIELNDKSTF,not soluble
7,MIKASLVFFAFLALASGRRHHYDYYDCEPERGPRGREGREGPRGAQGAPGPNGTGFFWPGTCEQSDCPDGWISVNRKINNDVEKKWCINMFWNQATNDLYKTSEKVCNSYGGVMTGFKDKGEFISVFALLKNRFPNIKPVSQVMIGARRLETCASISNFGNCTITKGTKWTDLVMSIDSFFNELQQSARFSPLKKCIVANPTNLKLYVANCNVLESDYPQDLFMCGRFAPCKK,not soluble
8,MIKDLVRPELQKLVPYVSHQVPYRIKLDANESPFELPESIRKKLADYFLKGPGLNIYPDNESVELRKTIAKYWNVDADEVIVGTGSNQLIQLIITVFVGKGEKVLYPWPTFSMYKINTLIAGGEPVAFPLDKEKDFVLDTDKFIEAVKTENAKVVFLCNPNNPTGGLVPLEHIEKIVKECKSSIIVVDEAYAEFCPQSVIPLVKKYENLVVLRTFSKAYLLAGARCGYSISGIEIANEINKVRPTYNVSSLTQLIAKMVFEEQEEMQKMIRYLIEQRGELEKSLKKIKDVCIYPSHANYILVKVPEAEMISKELQKRGILIRSFPNDPVLYDCIRITVGTKEQNDIFLEEFSDIINNF,not soluble
9,MIKEQVKSLWKLCFDDSEAFIELYFRLRYNNEVNLAIQSGEEVIAALQMLPYPMTFCNKIVPTSYISGACTHPDYRAKGVMRELLSQSFARMLRNGVLFSTLIPAEPWLFGYYAKTGYTPAFRISHKVFSLSELTIGPEPDTMIEETTEYQEDYYQYLTGKLSERACCLQHTPTDFKVVLADLALTQNTVLIARKDNRVTGIAVVYKHDDSSYINELFADNEAVRAQLLYRAGLRNGTERIILQLPPVESLPSVPLGMARIIDARAVLQLYAAGCPEVEMNIELTDEQLSVNNGYYYLCKGKCMTSEVRLPGVHTRMTIAELSEKILGEMQPYMSLMMN,not soluble
10,MIKFSIRGENIEVTEAIRDYVESKLTKIEKYFAKDQEIDARVNLKVYRERSSKVEVTIPLDSVTLRAEDVSQDMYGSIDLVVDKIERQIRKNKTKIAKKHREKVPTGQVFTTEFEAEEVDEIPEVQVVRTKNVTLKPMDVEEARLQMELLGHDFFIYTDSEDGATNILYRREDGNLGLIEAKLEHHHHHH,soluble
11,MIKILAACGAGVNSSHQIKSALEEELSNRGYDVHCDAVMVKDVNEDLMKGYDIFTPIAATDLGFEPGIPVIEAGPILFRIPAMSVPVFDNIRLPAKQNMV,not soluble
12,MIKPLTSSQEEVLKALNDDKYQIVGVFGPTGTGKTLLTLSYGIDVIKQGKFKKFIIVKPIVDIVTKKEITATELPNYHEVILSYIKDVLGPEYSATVDELYKSGRIEILDSRLLRGRTFDDSIIFIDEVQELQPESIIELIIRIGRNSKLVVAGDPVFQSLQMKTFKDPSELVREVLLNEEDAKVIDLGVKDIIRAGAKRGLRLLIEYRLRSRILSEEENKVLNVTKAHAPDADIITVVDLSEEKKKLGLDNLTTVPDSIIVVKEGNIGRLVGKGGERINSTEKEIGKKLRALELSLDFKEYIRAVHPLPWVVKHIEDADFKGNELVVQIKKETGAFMGQKGSYVRFVDEAIRKLLGVGIRVIAKENENS,soluble
13,MILKASKEALKEAVEILKKGGIIVAPTDTLYGILADATNEEAVKRLYKIRRPSGKPFLVLLPDESWLEKLCLDVKEEHKKLLKVEGLTLVFRKTCDKLDYVSKGTLAVRLPQKGFIRDLLSELKKPVVAPSVNPEGKKPAESVEEAYNYFGNKVDLYIDAGVIKGEPSTILDLTEGVKILREGKVKKEEIEKILNRKL,soluble
14,MILLQLNHISKSFDGEDIFTDVDFEVKTGERIGIVGRNGAGKSTLMKIIAGVENYDSGNVSKIKNLKLGYLTQQMTLNSNATVFEEMSKPFEHIKRMESLIKEETDWLSKHANDYDSDTYKTHMSRYESLSNQFEQLEGYQYESKIKTVLYGLNFSEEDFNKPINDFSGGQKTRLSLAQMLLNEPDLLLLDEPTNHLDLETTKWLEDYLRYFKGAIVIISHDRYFLDKIVTQIYDVALGDVKRYVGNYEEFIQQRDLYYQKRMQEYESQQAEIKRLETFVEKNITRASTSGMAKSRRKILEKMERIDKPMLDAKSANIQFGFDRNTGNDVMHVKNLEIGYQTAITKPMSIEVSKGDHIAIIGPNGIGKSTLIKTIANQQKALNGDITFGANLQIGYYDQKQAEFKSSKTILDYVWDQYPLMNEKDIRAVLGRFLFVQDDVKKIINDLSGGEKARLLLALLMLQRDNVLILDEPTNHLDIDSKEMLEQALQHFEGTILFVSHDRYFINQLANKVFDLTIDGGKMYLGDYQYYIEKVEEAEALKAHQEEQSVNVQAHKKSMEQSSYHNQKEQRREQRKLERQISECENEIETLETTILQIDEQLTQPEVYNNPQKANELAIQKQDSEQKLEHAMSKWEELQQKL,not soluble

# — the DeepSol protein solubility set
